Experimental data reported in paper doi:10.1101/201277 (bioRxiv, 2017).
Like-named read-outs stand apart in the source and are kept apart here.

B1: aceB operator (filter binding) (dsDNA)
DNA 1: TGTTGTGTGGGCTGAATCGCTTAACGTCACACAGG
DNA 2: CCTGTGTGACGTTAAGCGATTCAGCCCACACAACA
B2: catabolite repressor activator protein (Cra), wild-type (natural protein, E. coli, UniProt P0ACP1 1-334, looked up)
chain: MKLDEIARLAGVSRTTASYVINGKAKQYRVSDKTVEKVMAVVREHNYHPNAVAAGLRAGRTRSIGLVIPDLENTSYTRIANYLERQARQRGYQLLIACSEDQPDNEMRCIEHLLQRQVDAIIVSTSLPPEHPFYQRWANDPFPIVALDRALDREHFTSVVGADQDDAEMLAEELRKFPAETVLYLGALPELSVSFLREQGFRTAWKDDPREVHFLYANSYEREAAAQLFEKWLETHPMPQALFTTSFALLQGVMDVTLRRDGKLPSDLAIATFGDNELLDFLQCPVLAVAQRHRDVAERVLEIVLASLDEPRKPKPGLTRIKRNLYRRGVLSRS
B3: pfkA operator (BLI) (dsDNA)
DNA 1: ATGCATGTTGTGTGGCCTGAATCAATTCAGCTCACACAGGTGTCC
DNA 2: GGACACCTGTGTGAGCTGAATTGATTCAGGCCACACAACATGCAT
B4: fruB proximal operator (BLI) (dsDNA)
DNA 1: ATGCATGTTGTGTGGTTCTTGAAACGTTTCAGCTCACACAGGTCC
DNA 2: GGACCTGTGTGAGCTGAAACGTTTCAAGAACCACACAACATGCAT
B5: aceB operator (BLI) (dsDNA)
DNA 1: ATGCATGTTGTGTGGGCTGAATCGCTTAACGTCACACAGGTGTCC
DNA 2: GGACACCTGTGTGACGTTAAGCGATTCAGCCCACACAACATGCAT
B6: fruB proximal operator (filter binding) (dsDNA)
DNA 1: TGTTGTGTGGTTCTTGAAACGTTTCAGCTCACACAGG
DNA 2: CCTGTGTGAGCTGAAACGTTTCAAGAACCACACAACA
B7: fruB distal operator (filter binding) (dsDNA)
DNA 1: TGTTGTGTGGGAGGCTGAATCGTTTCAATCACACAGG
DNA 2: CCTGTGTGATTGAAACGATTCAGCCTCCCACACAACA
B8: fructose-1-kinase (FruK), recombinant, separately purified (enzyme, E. coli, UniProt P0AEW9 1-312, looked up)
chain: MSRRVATITLNPAYDLVGFCPEIERGEVNLVKTTGLHAAGKGINVAKVLKDLGIDVTVGGFLGKDNQDGFQQLFSELGIANRFQVVQGRTRINVKLTEKDGEVTDFNFSGFEVTPADWERFVTDSLSWLGQFDMVCVSGSLPSGVSPEAFTDWMTRLRSQCPCIIFDSSREALVAGLKAAPWLVKPNRRELEIWAGRKLPEMKDVIEAAHALREQGIAHVVISLGAEGALWVNASGEWIAKPPSVDVVSTVGAGDSMVGGLIYGLLMRESSEHTLRLATAVAALAVSQSNVGITDRPQLAAMMARVDLQPFN

Key:
[1] = target: T1, Cra (FruR) (Escherichia coli strain 3.300 …, UniProt P0ACP1 1-334); assay: filter binding
[2] = target: the molecule itself; assay: elution from a phosphocellulose column
[3] = target: T1, Cra (FruR); assay: BLI
[4] = target: T2, Cra (FruR);FruK (fructose-1-kinase, 1-phosphofructokinase) (Escherichia coli strain 3.300 …, UniProt P0ACP1;P0AEW9 1-334;1-312, |); assay: BLI
[5] = target: T2, Cra (FruR);FruK (fructose-1-kinase, …); assay: BLI; remark: listed apart in the source
[6] = target: T2, Cra (FruR);FruK (fructose-1-kinase, …); assay: BLI; remark: listed apart in the source
[7] = target: B2; assay: pull-down

Binder | Kd [1] | binding result [3] | also measured
B1 | 1.7 nM | – | –
B2 | – | – | stoichiometry N [2]: 2
B3 | – | binds | binding result [4]: binds
B4 | – | binds | binding result [5]: binds
B5 | – | binds | binding result [6]: binds
B6 | 0.018 nM | – | –
B7 | 0.018 nM | – | –
B8 | – | – | Kd [7]: < 100 nM
